The source of these data is patent US20260234247A1 (published 2026).

The target in one test is T1, human LILRB1-his (human, UniProt Q8NHL6 24-458, limits assumed).
T1 construct: Analyte of the Biacore run; not shown: His tag
The test is described as follows: SPR (Biacore 8K), antibody captured via Fc, LILRB1-his as analyte, 1:1 model. Background: Surface plasmon resonance follows binding to a sensor surface in real time, without labels.

The target in another test is T2, human LILRB2-his (human, UniProt Q8N423 22-460, limits assumed).
T2 construct: Analyte of the Biacore run; not shown: His tag
The test is described as follows: SPR (Biacore 8K), antibody captured via Fc, LILRB2-his as analyte, 1:1 model.

Test [1] has as its target T3, Biotinylated LILRB2 (UniProt Q8N423 22-460, limits assumed, biotinylated (sites not given)).
T3 construct: also called biotinylated-LILRB2 protein
The test is described as follows: epitope binning ELISA; coated antibody 1 ug/ml, biotinylated LILRB2; competitor J19.h1 at 20 ug/ml. (In general: In an ELISA, binding on a coated surface is turned into a signal by an enzyme label.)

The target in test [2] is T3, Biotinylated LILRB2. The test is described as follows: epitope binning ELISA; coated antibody 1 ug/ml, biotinylated LILRB2; competitor LK-RB2-2 at 20 ug/ml.
Procedure: (§1) Binding epitope of a subset of anti-LILRB1 and anti-LILRB2 antibodies was analyzed by epitope binning ELISA. Briefly, a panel of testing antibodies were coated onto ELISA plate. 50 ul/well Biotinylated LILRB1 or LILRB2 and 50 ul/well of competing antibodies were added to the coated plate and incubated at 37° C. for 1 hour. After Streptavidin-HRP (1:5000) incubation and TMB development, the plates were read at 450 nm using Molecular device spectra max plus384.
The target of test [3] is T3, Biotinylated LILRB2. The test is described as follows: epitope binning ELISA; coated antibody 1 ug/ml, biotinylated LILRB2; competitor LK-RB2-3 at 20 ug/ml.
Procedure: as §1
Test [4] addresses T3, Biotinylated LILRB2. The test is described as follows: epitope binning ELISA; coated antibody 1 ug/ml, biotinylated LILRB2; competitor LK-RB2-14 at 20 ug/ml.
Procedure: as §1
Test [5] addresses T3, Biotinylated LILRB2. The test is described as follows: epitope binning ELISA; coated antibody 1 ug/ml, biotinylated LILRB2; competitor LK-RB2-15 at 20 ug/ml.
Procedure: as §1
Test [6] addresses T3, Biotinylated LILRB2. The test is described as follows: epitope binning ELISA; coated antibody 1 ug/ml, biotinylated LILRB2; competitor LK-RB2-24 at 20 ug/ml.
Procedure: as §1
The target of test [7] is T3, Biotinylated LILRB2. The test is described as follows: epitope binning ELISA; coated antibody 1 ug/ml, biotinylated LILRB2; competitor hz73D1.v1 at 20 ug/ml.
Procedure: as §1
The target of test [8] is T4, Cynomolgus LILRB2 on CHOK1 cells (cynomolgus).
T4 construct: whole, on cells; also called CHOK1-Cyno LILRB2
The test is described as follows: flow cytometry on CHOK1-cyno LILRB2 cells. (A flow cytometer gives signals particle by particle.)
Source text: Anti-LILRB1 and anti-LILRB2 antibodies were also screened for their ability to bind rhesus macaque LILRB1 (Kactusbio, LLC: LIL-CM1B1 and LIL-CM1B3), cynomolgus LILRB1 (Kactusbio, LLC: LIL-CM1B2) and cynomolgus LILRB2 (Kactusbio, LLC: LIL-CM1B5) by ELISA and flow cytometry.

T1 sequence (Q8NHL6 24-458 limits assumed): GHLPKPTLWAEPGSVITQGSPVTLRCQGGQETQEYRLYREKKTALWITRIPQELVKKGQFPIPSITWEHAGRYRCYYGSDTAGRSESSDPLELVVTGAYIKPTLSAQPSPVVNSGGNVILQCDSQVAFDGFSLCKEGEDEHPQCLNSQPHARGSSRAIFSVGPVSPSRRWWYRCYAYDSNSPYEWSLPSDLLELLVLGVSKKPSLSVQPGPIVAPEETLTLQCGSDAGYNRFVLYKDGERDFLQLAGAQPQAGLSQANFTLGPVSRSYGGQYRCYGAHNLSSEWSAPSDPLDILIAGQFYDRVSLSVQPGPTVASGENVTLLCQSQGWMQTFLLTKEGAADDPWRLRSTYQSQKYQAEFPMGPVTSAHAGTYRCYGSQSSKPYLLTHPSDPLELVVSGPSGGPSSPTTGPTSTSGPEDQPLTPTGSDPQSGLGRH
T2 sequence (Q8N423 22-460 limits assumed): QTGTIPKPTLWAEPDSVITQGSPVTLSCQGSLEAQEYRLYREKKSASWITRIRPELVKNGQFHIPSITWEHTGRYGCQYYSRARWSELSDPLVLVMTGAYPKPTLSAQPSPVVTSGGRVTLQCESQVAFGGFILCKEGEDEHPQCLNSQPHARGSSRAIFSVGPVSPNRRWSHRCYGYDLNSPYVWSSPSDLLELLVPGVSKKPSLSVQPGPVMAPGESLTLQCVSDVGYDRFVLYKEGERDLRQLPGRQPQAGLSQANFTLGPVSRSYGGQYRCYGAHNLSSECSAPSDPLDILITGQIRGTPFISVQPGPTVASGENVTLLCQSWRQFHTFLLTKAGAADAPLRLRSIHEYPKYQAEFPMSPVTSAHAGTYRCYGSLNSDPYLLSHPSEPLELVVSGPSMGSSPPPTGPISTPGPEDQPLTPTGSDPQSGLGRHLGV
T3 sequence (Q8N423 22-460 limits assumed): as above
Procedure for human LILRB1-his: (§2) For affinity ranking, antibodies were captured on the sensor chip through Fc capture method. LILRB1-his, LILRB2-his or LILRA2-his was used as the analyte. The surface was regenerated before the injection of another antibody. The process was repeated until all antibodies were analyzed. The off-rates were obtained from fitting the experimental data locally to 1:1 interaction model using the Biacore 8K evaluation software. The data of dissociation (kd) and association (ka) rate constants were obtained using Biacore 8K evaluation software. The equilibrium dissociation constants (KD) were calculated from the ratio of kd over ka. The antibodies were ranked by their dissociation rate constant kd.
Procedure for human LILRB2-his: as §2

B1: LK-RB2-24 (antibody, human IgG4 S228P, kappa, V domains shown)
VH: QIQLVQSGPEVKKPGETVKISCKASGYTFTTYGMSWVKQAPGKGLKWMGWLNIYSGVPAYADDFKGRFAFSLESSASTAYLQINNLKNEDTATYFCARRENYDGYGMDYWGQGTSVTVSS
VL: DIVMTQSPATLSVTPGDRVSLSCRASQSISDYLHWYQQKSHESPRLLIKYASQSISGIPSRFSGSGSGSDFTLSINSVEPEDVGVYYCQNGHSFPYTFGGGTKLEIKR
notes: Anti-LILRB2 antibody from mouse hybridoma; parental antibody of LK-RB2-24.h1 to h3
In the case of B1, the Kd (as a rule, the concentration at which binding is half-saturated) stood at 21.1 nM with human LILRB1-his and 0.51 nM with human LILRB2-his. For the same molecule, the figures for the koff with human LILRB1-his and with human LILRB2-his were 0.00406 s⁻¹ and 0.000484 s⁻¹, respectively. In addition, the values for the on-rate (kon) with human LILRB1-his and in the test with human LILRB2-his were 192000 M⁻¹ s⁻¹ and 950000 M⁻¹ s⁻¹, respectively. The Inhibition % with Biotinylated LILRB2 [1] was -4.04%; with Biotinylated LILRB2 [2], 48.4%; in the test with Biotinylated LILRB2 [3], 25.9%; with Biotinylated LILRB2 [4], 91.1%; in the test with Biotinylated LILRB2 [5] it was 95.2%; with Biotinylated LILRB2 [6], 95.7%. In addition, the Inhibition % with Biotinylated LILRB2 [7] was 22.1%.

B2: J19.h1 (antibody, human IgG4 S228P, kappa, V domains shown)
VH: QITLKESGPTLVKPTQTLTLTCTFSGFSLNTYAMGVSWIRQPPGKALEWLASIWWNGNKYNNPSLKSRLTVTKDTSKNQVVLTMTNMDPVDTATYYCAHSRIIRFTDYVMDAWGQGTLVTVSS
VL: DIQMTQSPSSLSTSVGDRVTITCRASEDIYNDLAWYQQKPGKAPKLLIYNANSLHTGVASRFSGSGSGTDFTFTISSLQPEDVATYFCQQYYDYPLTFGQGTKLEIKR
Turning to B2, the Inhibition % stood at 92.5% with Biotinylated LILRB2 [1]; 97.8% with Biotinylated LILRB2 [2]; 93.9% in the test with Biotinylated LILRB2 [3]; 96.1% with Biotinylated LILRB2 [4]; 17.5% in the test with Biotinylated LILRB2 [5]; 44.5% with Biotinylated LILRB2 [6]. Also, the Inhibition % with Biotinylated LILRB2 [7] was 95.9%.

B3: LK-RB1-39 (antibody, human IgG4 S228P, kappa, V domains shown)
VH: EVQLQQSGAELVRPGASVKLSCTASGFNIKDDYVHWVNQRPEQGLEWIGWIDPENGDTGYASKFQDKATITADTSSNTAYLHLSSLTSEDTAVYYCTTTRWTGSYWGQGTTLTVSS
VL: QIVLTQSPAIMSASPGEKVTITCSASSSVNYMHWFQQKPGSSPKLWIYSTANLASGVPARFSGSGSGTSYSLTISRMEAEDAATYYCQQRSSYPPTWTFGGGTKLEIKR
notes: Anti-LILRB1 antibody
On to B3, for which, in test [8], the EC50 (usually the concentration that produces a half-maximal response) amounted to 0.36 nM.

B4: LK-RB2-8 (antibody, human IgG4 S228P, kappa, V domains shown)
VH: QIQLVQSGPELKKPGETVKISCKASGYSFASYGMGWVKQAPGKGLKWLGWINTHSGVPTYADDFKGRFAFSLETSASTAYLQINNLKNEDTATYFCAHYGRPWFPYWGQGTLVTVSA
VL: DIQMTQSPASLSASVGETVTITCRTSENIYSYLAWYQQKQGKSPQLLVYNAKSLAEGVPSRFSGSGSGTQFSLRINSLQPEDFGTYYCQQHYETPLTFGAGTKLELKR
notes: Anti-LILRB2 antibody
B4 yielded an EC50 in [8] of 19.8 nM.

B5: LK-RB2-16 (antibody, human IgG4 S228P, kappa, V domains shown)
VH: QIQLVQSGPELKKPGETVKISCKASGYTFTTYGMGWVKQAPEKGLKWMGWINTNSGAPTYGDDFKGRFAFSLETSASTAYLQINNLKNEDTATYFCAHYGRPWFAYWGQGTLVTVSA
VL: DIQMTQSPASLSASVGETVTITCRASENIYSYLAWYHQKQGESPQLLVYNAKTLAEGVPSRFSGSGSGTQFSLKINSLQPEDFGSYYCQHHYNIPLTFGAGTKLELKR
notes: Anti-LILRB2 antibody
B5: in [8], a half-maximal effect (EC50) was put at 5.45 nM.

B6: LK-RB2-2 (antibody, human IgG4 S228P, kappa, V domains shown)
VH: DVKLEESGEGLVKPGGSLKLSCAASGFTFSSYAMSWVRQTPEKRLEWVAYISSGGDYFHYADTVKGRFTISRDNARNTLYLQMSSLKSEDTAMYYCTREGAHYDSSYLAWFAHWGQGTLVTVSA
VL: DIQMTQSPASLSVSVGETVTITCRASENIYSNLAWYQQRQGKSPQLLVYAATNLADGVPSRFSGSGSGTQYSLKINSLQSEDFGSYYCQQFWDNPLTFGAGTKLELKR
notes: Anti-LILRB2 antibody from mouse hybridoma; parental antibody of LK-RB2-2.h1 to h3
With B6, in the test with human LILRB2-his, the Kd worked out at 0.168 nM. For the same molecule, the koff (commonly the rate constant with which the complex falls apart) with human LILRB2-his was determined as 0.000134 s⁻¹. The on-rate (kon) (commonly the rate constant with which the complex forms) with human LILRB2-his is 800000 M⁻¹ s⁻¹. Further, the Inhibition % with Biotinylated LILRB2 [1] was determined as 69.6%; with Biotinylated LILRB2 [2], 97.8%; in the test with Biotinylated LILRB2 [3], 93.9%; with Biotinylated LILRB2 [4] it was 89.4%; with Biotinylated LILRB2 [5] it was 13.6%; with Biotinylated LILRB2 [6] it was 17.7%. The Inhibition % with Biotinylated LILRB2 [7] was 92.8%.
